Data published in patent US9591845B2, “Method for treating blood, blood products and organs” (FORSCHUNGSZENTRUM JUELICH GMBH, priority 2012, dated 2017).
Non-standard residues stand in square brackets, D forms with d. No end group written: not given here.

Target: A-beta peptide (1-42) (Homo sapiens, UniProt P05067)
Assay: ThT seeding assay
Assay type: biochemical
Conditions: for seeding effect of preformed Abeta-inhibitor coaggregates (ability to increase the rate of the aggregation of fresh Abeta / shorten the lag phase): coaggregates formed with 20 μM inhibitor, 7 days at 37° C., 10 mM NaPi pH 7.4, mixed 20:80 with fresh Aβ 20 μM, 10 μM ThT, fluorescence over 20 h

A-beta peptide (1-42), sequence (P05067 672-713): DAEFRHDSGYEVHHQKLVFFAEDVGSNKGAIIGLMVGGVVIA

Substance	seeding effect of preformed Abeta-inhibitor coaggregates (ability to increase the rate of the aggregation of fresh Abeta / shorten the lag phase)	formation of ThT-positive Abeta aggregates in the later phase (inhibitor-Abeta coaggregates added to fresh Aβ 20 μM, ThT fluorescence over 20 h)
rpitrlhtnrnr [DB1]	no seeding effect	–
rpitrlqtheqr ([dR][dP][dI][dT][dR][dL][dQ][dT][dH][dE][dQ][dR]) [DB5]	no seeding effect	–
rpitrlrthqnr ([dR][dP][dI][dT][dR][dL][dR][dT][dH][dQ][dN][dR]) [DB3]	no seeding effect	–
rpittlqthqnr ([dR][dP][dI][dT][dT][dL][dQ][dT][dH][dQ][dN][dR]) [DB2]	no seeding effect	–
rprtrlhthrnr ([dR][dP][dR][dT][dR][dL][dH][dT][dH][dR][dN][dR]) [D3]	no seeding effect	–
rprtrlrthqnr ([dR][dP][dR][dT][dR][dL][dR][dT][dH][dQ][dN][dR]) [DB4]	no seeding effect	appear to reduce the formation of ThT-positive Abeta aggregates in the later phase
